How the values were obtained:
Format in all cases: in vivo, human
[1] = Circulating trough infliximab levels in serum of RA patients on MTX plus infliximab (K562 NFKB-luciferase cell based assay)
Description: (§1) Adult RA patients receiving weekly MTX with infliximab for more than three months were enrolled in a cross sectional study. Blood was collected at trough before the infusion of infliximab. Red blood cell (RBC) MTXPGs were measured using liquid chromatography while circulating levels of infliximab were measured using a cell based assay. ATIs were measured using enzyme immunoassays. Statistical analysis consisted of regression analyses and Wilcoxon tests.
(§2) The study was cross sectional study in adult RA patients at three study sites (Brigham and Women's, Boston, Mass.; The Center for Rheumatology, Albany, N.Y.; and Altoona Center for Clinical Research, Altoona Pa.). All RA patients (according to the 2010 ACR criteria for RA)^8 enrolled had received a stable dose of MTX (for at least 4 months) in combination with infliximab for at least 3 months. Clinical parameters and demographic data were collected at the time of a single study visit. The study was approved by an independent ethic committee and informed consent was collected from all patients. Blood was drawn in EDTA containing tube and one SST tube at the time of the study visit. The blood was drawn just prior to the infliximab infusion (trough) and shipped overnight using refrigerated transportation kits. Disease activity was estimated using the clinical disease activity index (CDAI). […] RBC MTXPG3 were measured using a liquid chromatography developed and validated in our laboratory^9. Quantification limit was 5 nmol/L RBCs. Circulating levels of infliximab in serum were measured by Biomonitor (Copenhagen, DK) using a cell based assay consisting of erythroleukemic K562 cells transfected with a NFKB regulated firefly luciferase reporter-gene construct^10. Antibodies to infliximab (ATIs) were measured using a proprietary enzyme immunoassay technique (Biomonitor, Copenhagen, Denmark). The cutoff for positive ATI was 0.9 U/L. Anti-citrullinated peptide auto-antibodies levels (Anti-MCV) were measured using ELISA (Orgentec Diagnostika, Mainz, Germany). […]

[2] = Antibodies to infliximab (ATIs) in RA patients by enzyme immunoassay, cutoff 0.9 U/L
Description: as §1
The study was cross sectional study in adult RA patients at three study sites (Brigham and Women's, Boston, Mass.; The Center for Rheumatology, Albany, N.Y.; and Altoona Center for Clinical Research, Altoona Pa.). All RA patients (according to the 2010 ACR criteria for RA)^8 enrolled had received a stable dose of MTX (for at least 4 months) in combination with infliximab for at least 3 months. Clinical parameters and demographic data were collected at the time of a single study visit. The study was approved by an independent ethic committee and informed consent was collected from all patients. Blood was drawn in EDTA containing tube and one SST tube at the time of the study visit. The blood was drawn just prior to the infliximab infusion (trough) and shipped overnight using refrigerated transportation kits. Disease activity was estimated using the clinical disease activity index (CDAI). Upon receipt of blood specimen, erythrocytes and serum were isolated and stored frozen at −80° C. RBC MTXPG3 were measured using a liquid chromatography developed and validated in our laboratory^9. Quantification limit was 5 nmol/L RBCs. Circulating levels of infliximab in serum were measured by Biomonitor (Copenhagen, DK) using a cell based assay consisting of erythroleukemic K562 cells transfected with a NFKB regulated firefly luciferase reporter-gene construct^10. Antibodies to infliximab (ATIs) were measured using a proprietary enzyme immunoassay technique (Biomonitor, Copenhagen, Denmark). The cutoff for positive ATI was 0.9 U/L. Anti-citrullinated peptide auto-antibodies levels (Anti-MCV) were measured using ELISA (Orgentec Diagnostika, Mainz, Germany). Statistical analysis consists of multivariate logistic/linear regression and Wilcoxon tests as appropriate.

[3] = RBC MTXPG3 levels in RA patients measured by liquid chromatography
Description: as §1, §2

Compound | median infliximab levels, patients without ATI ([1]; ATI negative patients, trough) [µg/mL] | median infliximab levels, patients with ATIs ([1]; ATI positive patients, trough) [µg/mL] | median trough infliximab levels ([1]; all 61 RA patients, MTX with infliximab, serum at trough before infusion) [µg/mL] | patients with ATIs detected ([2]; 11 of 61 patients, ATI>0.9 U/L) [%] | patients testing positive for ATI ([2]; 12 patients with RBC MTXPG3 above 50 nmol/L) | fold lower likelihood of having ATI (odds ratio) ([2]; RBC MTXPG3 levels above 25 nmol/L, logistic regression, CI95%: 1.1-20.8) [fold] | number of patients with ATI ([2]; of 4 patients with MTXPG3<5 nmol/L) | patients presenting with ATI ([2]; patients with RBC MTXPG3 below 5 nmol/L (3 out of 4)) [%] | median RBC MTXPG3, patients without ATI ([3]; ATI negative patients) [nmol/L] | median RBC MTXPG3, patients having ATIs ([3]; ATI positive patients) [nmol/L] | median RBC MTXPG3 levels ([3]; all 61 RA patients on weekly MTX, red blood cells) [nmol/L]
infliximab | 5.0 | < 0.5 | 3.3 | 18 | None and none | 4.7 | 3 | 75 | – | – | –
CN(Cc1cnc2nc(N)nc(N)c2n1)c1ccc(C(=O)N[C@@H](CCC(=O)N[C@@H](CCC(=O)N[C@@H](CCC(=O)O)C(=O)O)C(=O)O)C(=O)O)cc1 [MTXPG3] | – | – | – | – | – | – | – | – | 30 | 22 | 28
